Reference: US20110002945A1

Columns and labels:
[1] = biological target: recombinant λ6-variable domain light chain Jto in fibrillar form; experiment: EuLISA on plate-immobilized fibrils
[2] = biological target: fibrillar Aβ1-40 peptide (Homo sapiens (Human)) (UniProt P05067)
[3] = biological target: recombinant λ6-variable domain light chain Jto in fibrillar form; experiment: binding to plate-immobilized fibrils

fibrillar Aβ1-40 peptide (Homo sapiens (Human)), sequence (P05067 672-711 limits assumed): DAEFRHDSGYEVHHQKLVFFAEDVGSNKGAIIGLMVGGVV

B1: antibody heavy chain F1 (protein)
heavy: AMDWTWSILFLVAAATGAHSQVQLVQSGAEVKKPGASVKVSCKASGYTFSSNGIIWVRQAPGQGLEWLGWISGYNGKTRYAQKVQGRVTITTDTSTSTAYMELRSLRSDDTAVYYCAREKTMVRGAISGYSDYWGQGTLVTVSSASTKGPSVFPLAPSSKSTSGGTAALGCLVKDYFPEPVTVSWNSGALTSGVHTFPAVLQSSGLYSLSSVVTVPSSSLGTQTYICNVNHKPSNTKVDKKRVEPKSCDKTHTCPPCPAPELLGGPSVFLFPPKPKDTLMISRTPEVTCVVVDVSHEDPEVKFNWYVDGVEVHNAKTKPREEQYNSTYRVVSVLTVLDHQDWLNGKEYKCKVSNKALPAPIEKTISKAKGQPREPQVYTLPPSREELMTKNQVSLTCLVKGFYPSDIAVEWESNGQPENNYKTTPPVLDSDGSFFLYSKLTVDKSRWQQGNVFSCSVMHEALHNHYTQKSLSLSPGK
[1]
  EC50: 24 nM
  Max. Eu3+: 195 fmol
[2]
  Aβ fibril growth (recruitment of soluble biotinylated Aβ monomer to plate-bound Aβ1-40 fibrils, EuLISA): 1 µM
[3]
  affinity: 20 nM
